Columns and labels:
Assay type in all cases: physicochemical
[1] = Rheological properties (stiffness, storage modulus, viscosity) at selected pH levels
Method: Rheological properties of certain peptide compositions were observed before and after adjusting their pH levels to 3.4 (RADA16 (SEQ ID NO:1) and KLD12 (SEQ ID NO:2)) or 3.7 (IEIK13 (SEQ ID NO:3)). Rheological properties of peptides were evaluated using a rheometer (AR500, TA Instruments) with 40 mm plates. Specifically, a peptide composition (700 μL) was placed on the rheometer plate and excess composition was gently removed by Kimwipes. Measurements were performed after 2 minutes of relaxation time at 37° C. RADA16 (SEQ ID NO:1), KLD12 (SEQ ID NO:2) and IEIK13 (SEQ ID NO:3) compositions at elevated pH were stiffer than those at 2.5 (RADA16 (SEQ ID NO:1)), 2.0 (KLD12 (SEQ ID NO:2)), and 2.1 (IEIK13 (SEQ ID NO:3)).
Storage modulus of certain peptide compositions at selected pH levels were evaluated using a rheometer (DHR-1, TA Instruments) with 20 mm plates. […] Determined storage moduli for tested peptide compositions are shown in FIG. 18 for RADA16 (SEQ ID NO:1) and FIG. 19 for IEIK13 (SEQ ID NO:3), respectively.
Viscosities of 1% IEIK13 (SEQ ID NO:3) compositions at selected pH levels were evaluated using a rheometer (DHR-1, TA Instruments) with 20 mm plates.

[2] = Visual observation of peptide compositions with selected salts (cloud point, critical ionic strength); conditions: for Observation: room temperature; for Conc. at cloud point / Ionic strength at cloud point: visual observation of solubility
Method: Visual observations of RADA16 (SEQ ID NO:1), KLD12 (SEQ ID NO:2), and IEIK13 (SEQ ID NO:3) compositions with selected salts (e.g. KCl, MgCl2, CaCl2) are summarized in Tables 7-9. […] Apparent stiffness of RADA16 (SEQ ID NO:1), KLD12 (SEQ ID NO:2) and IEIK13 (SEQ ID NO:3) compositions was increased with increased ionic strength.
Critical ion strengths were determined from the visual observations recorded in Tables 7-9. When the ionic strengths of peptide compositions were higher than 0.9 M (RADA16 (SEQ ID NO:1)), 0.3 M (KLD12 (SEQ ID NO:2)) or 0.03 M (IEIK13 (SEQ ID NO:3)), the peptide compositions began phase separation. 0.9 M, 0.3 M and 0.03 M may represent critical ion strengths for RADA16 (SEQ ID NO:1), KLD12 (SEQ ID NO:2) and IEIK13 (SEQ ID NO:3), respectively.

[3] = pH of reference peptide compositions in water; conditions: reference composition in water
Description: Table 2, below, presents pH concentrations observed for reference compositions in which the indicated peptide is solubilized in water at the indicated concentration.

Question: With “Arg-Ala-Asp-Ala-Arg-Ala-Asp-Ala-Arg-Ala-Asp-Ala-Arg-Ala-Asp-Ala [RADA16]” as the substance, how does the “Storage modulus as a function of pH” value ([1]; DHR-1, 20 mm plates, 2.5% RADA16, 1.5% IEIK13 (FIGS. 18, 19)) read?
Answer: increased with pH increase up to 3.4

Question: What about the “Stiffness at elevated pH versus unadjusted pH” value ([1]; pH 3.4 (RADA16, KLD12) or 3.7 (IEIK13) versus 2.5 (RADA16), 2.0 (KLD12), 2.1 (IEIK13), stress sweep) of the same substance?
Answer: stiffer

Question: What about the Observation ([2]; RADA16 0.5%, DPBS (pH 3.2) 1.0 M, ionic strength 1.0 M) of the same substance?
Answer: Cloudy, phase-separated

Question: And the Observation ([2]; RADA16 0.55%, DPBS (pH 3.2) 0.95 M, ionic strength 0.95 M)?
Answer: Slightly cloudy, brittle gel

Question: And the Observation ([2]; RADA16 0.6%, DPBS (pH 3.2) 0.9 M, ionic strength 0.9 M)?
Answer: Clear, thick, stiffer gel

Question: What about the Observation ([2]; RADA16 0.75%, DPBS (pH 3.2) 0.75 M, ionic strength 0.75 M) of the same substance?
Answer: Clear, thick, stiffer gel

Question: And the Observation ([2]; RADA16 0.9%, DPBS (pH 3.2) 0.6 M, ionic strength 0.6 M)?
Answer: Clear, thick, stiffer gel

Question: And the Observation ([2]; RADA16 0.93%, KCl 1.15 M, ionic strength 1.15 M)?
Answer: Cloudy, phase-separated

Question: What about the Observation ([2]; RADA16 0.95%, KCl 1.1 M, ionic strength 1.1 M) of the same substance?
Answer: Slightly cloudy, brittle gel

Question: And the Observation ([2]; RADA16 0.98%, KCl 1.05 M, ionic strength 1.05 M)?
Answer: Slightly cloudy, thick,

Question: And the Observation ([2]; RADA16 1.0%, KCl 1.0 M, ionic strength 1.0 M)?
Answer: Clear, thick, stiffer gel

Question: And the Observation ([2]; RADA16 1.0%, NaCl 1.0 M, ionic strength 1.0 M)?
Answer: Cloudy, phase-separated

Question: And the Observation ([2]; RADA16 1.03%, KCl 0.95 M, ionic strength 0.95 M)?
Answer: Clear, thick, stiffer gel

Question: And the Observation ([2]; RADA16 1.03%, NaCl 0.95 M, ionic strength 0.95 M)?
Answer: Cloudy, phase-separated

Question: What about the Observation ([2]; RADA16 1.05%, DPBS (pH 3.2) 0.45 M, ionic strength 0.45 M) of the same substance?
Answer: Clear, thick, stiffer gel

Question: What about the Observation ([2]; RADA16 1.05%, KCl 0.9 M, ionic strength 0.9 M) of the same substance?
Answer: Clear, thick, stiffer gel

Question: And the Observation ([2]; RADA16 1.05%, NaCl 0.9 M, ionic strength 0.9 M)?
Answer: Slightly cloudy, brittle gel

Question: And the Observation ([2]; RADA16 1.08%, NaCl 0.85 M, ionic strength 0.85 M)?
Answer: Clear, thick, stiffer gel

Question: And the Observation ([2]; RADA16 1.10%, NaCl 0.8 M, ionic strength 0.8 M)?
Answer: Clear, thick, stiffer gel

Question: What about the Observation ([2]; RADA16 1.13%, KCl 0.75 M, ionic strength 0.75 M) of the same substance?
Answer: Clear, thick, stiffer gel

Question: What about the Observation ([2]; RADA16 1.13%, NaCl 0.75 M, ionic strength 0.75 M) of the same substance?
Answer: Clear, thick, stiffer gel

Question: What about the Observation ([2]; RADA16 1.2%, DPBS (pH 3.2) 0.3 M, ionic strength 0.3 M) of the same substance?
Answer: Clear, thick, stiffer gel

Question: What about the Observation ([2]; RADA16 1.2%, KCl 0.6 M, ionic strength 0.6 M) of the same substance?
Answer: Clear, thick, stiffer gel

Question: And the Observation ([2]; RADA16 1.2%, NaCl 0.6 M, ionic strength 0.6 M)?
Answer: Clear, thick, stiffer gel

Question: What about the Observation ([2]; RADA16 1.27%, KCl 0.45 M, ionic strength 0.45 M) of the same substance?
Answer: Clear, thick, stiffer gel

Question: What about the Observation ([2]; RADA16 1.27%, NaCl 0.45 M, ionic strength 0.45 M) of the same substance?
Answer: Clear, thick, stiffer gel

Question: What about the Observation ([2]; RADA16 1.28%, CaCl2 0.433 M, ionic strength 1.3 M) of the same substance?
Answer: Cloudy, phase-separated

Question: What about the Observation ([2]; RADA16 1.28%, MgCl2 0.433 M, ionic strength 1.3 M) of the same substance?
Answer: Cloudy, phase-separated

Question: And the Observation ([2]; RADA16 1.29%, CaCl2 0.417 M, ionic strength 1.25 M)?
Answer: Slightly cloudy, brittle gel

Question: And the Observation ([2]; RADA16 1.29%, MgCl2 0.417 M, ionic strength 1.25 M)?
Answer: Slightly cloudy, brittle gel

Question: And the Observation ([2]; RADA16 1.3%, CaCl2 0.4 M, ionic strength 1.2 M)?
Answer: Slightly cloudy, thick,

Question: And the Observation ([2]; RADA16 1.3%, MgCl2 0.4 M, ionic strength 1.2 M)?
Answer: Slightly cloudy, thick,

Question: What about the Observation ([2]; RADA16 1.31%, CaCl2 0.383 M, ionic strength 1.15 M) of the same substance?
Answer: Clear, thick, stiffer gel

Question: What about the Observation ([2]; RADA16 1.31%, MgCl2 0.383 M, ionic strength 1.15 M) of the same substance?
Answer: Clear, thick, stiffer gel

Question: What about the Observation ([2]; RADA16 1.32%, CaCl2 0.35 M, ionic strength 1.05 M) of the same substance?
Answer: Clear, thick, stiffer gel

Question: And the Observation ([2]; RADA16 1.32%, MgCl2 0.35 M, ionic strength 1.05 M)?
Answer: Clear, thick, stiffer gel

Question: And the Observation ([2]; RADA16 1.35%, CaCl2 0.3 M, ionic strength 0.9 M)?
Answer: Clear, thick, stiffer gel

Question: And the Observation ([2]; RADA16 1.35%, DPBS (pH 3.2) 0.15 M, ionic strength 0.15 M)?
Answer: Clear, thick, stiffer gel

Question: What about the Observation ([2]; RADA16 1.35%, KCl 0.3 M, ionic strength 0.3 M) of the same substance?
Answer: Clear, thick, stiffer gel

Question: And the Observation ([2]; RADA16 1.35%, MgCl2 0.3 M, ionic strength 0.9 M)?
Answer: Clear, thick, stiffer gel

Question: And the Observation ([2]; RADA16 1.35%, NaCl 0.3 M, ionic strength 0.3 M)?
Answer: Clear, thick, stiffer gel

Question: And the Observation ([2]; RADA16 1.38%, CaCl2 0.25 M, ionic strength 0.75 M)?
Answer: Clear, thick, stiffer gel

Question: And the Observation ([2]; RADA16 1.38%, MgCl2 0.25 M, ionic strength 0.75 M)?
Answer: Clear, thick, stiffer gel

Question: And the Observation ([2]; RADA16 1.4%, CaCl2 0.2 M, ionic strength 0.6 M)?
Answer: Clear, thick, stiffer gel

Question: And the Observation ([2]; RADA16 1.4%, MgCl2 0.2 M, ionic strength 0.6 M)?
Answer: Clear, thick, stiffer gel

Question: And the Observation ([2]; RADA16 1.43%, CaCl2 0.15 M, ionic strength 0.45 M)?
Answer: Clear, thick, stiffer gel

Question: What about the Observation ([2]; RADA16 1.43%, KCl 0.15 M, ionic strength 0.15 M) of the same substance?
Answer: Clear, thick, stiffer gel

Question: And the Observation ([2]; RADA16 1.43%, MgCl2 0.15 M, ionic strength 0.45 M)?
Answer: Clear, thick, stiffer gel

Question: What about the Observation ([2]; RADA16 1.43%, NaCl 0.15 M, ionic strength 0.15 M) of the same substance?
Answer: Clear, thick, stiffer gel

Question: And the Observation ([2]; RADA16 1.45%, CaCl2 0.1 M, ionic strength 0.3 M)?
Answer: Clear, thick, stiffer gel

Question: What about the Observation ([2]; RADA16 1.45%, MgCl2 0.1 M, ionic strength 0.3 M) of the same substance?
Answer: Clear, thick, stiffer gel

Question: And the Observation ([2]; RADA16 1.48%, CaCl2 0.05 M, ionic strength 0.15 M)?
Answer: Clear, thick, stiffer gel

Question: And the Observation ([2]; RADA16 1.48%, MgCl2 0.05 M, ionic strength 0.15 M)?
Answer: Clear, thick, stiffer gel

Question: And the Observation ([2]; RADA16 1.5%, CaCl2 0 M, ionic strength 0 M)?
Answer: Clear, thick gel

Question: What about the Observation ([2]; RADA16 1.5%, DPBS (pH 3.2) 0 M, ionic strength 0 M) of the same substance?
Answer: Clear, thick gel

Question: What about the Observation ([2]; RADA16 1.5%, KCl 0 M, ionic strength 0 M) of the same substance?
Answer: Clear, thick gel

Question: And the Observation ([2]; RADA16 1.5%, MgCl2 0 M, ionic strength 0 M)?
Answer: Clear, thick gel

Question: What about the Observation ([2]; RADA16 1.5%, NaCl 0 M, ionic strength 0 M) of the same substance?
Answer: Clear, thick gel

Question: What about the “Ionic strength range that did not noticeably change the opacity of compositions” value ([2]; approximately, depending on salt identities) of the same substance?
Answer: 0.85˜1.15 M

Question: And the “Critical ion strength (above it compositions began phase separation)” value ([2]; from visual observations of Tables 7-9)?
Answer: 0.9 M

Question: And the “Critical ionic strength (when the composition becomes cloudy)” value ([2]; range over salts)?
Answer: 0.9˜1.2 M

Question: And the “Conc. at cloud point” value ([2]; salt CaCl2)?
Answer: 0.383~0.4 M

Question: What about the “Ionic strength at cloud point” value ([2]; salt CaCl2) of the same substance?
Answer: 1.15~1.2 M

Question: And the “Conc. at cloud point” value ([2]; salt DPBS (pH 3.2))?
Answer: 0.9~0.95 M

Question: And the “Ionic strength at cloud point” value ([2]; salt DPBS (pH 3.2))?
Answer: 0.9~0.95 M

Question: And the “Conc. at cloud point” value ([2]; salt KCl)?
Answer: 1.0~1.05 M

Question: And the “Ionic strength at cloud point” value ([2]; salt KCl)?
Answer: 1.0~1.05 M

Question: What about the “Conc. at cloud point” value ([2]; salt MgCl2) of the same substance?
Answer: 0.383~0.4 M

Question: And the “Ionic strength at cloud point” value ([2]; salt MgCl2)?
Answer: 1.15~1.2 M

Question: What about the “Conc. at cloud point” value ([2]; salt NaCl) of the same substance?
Answer: 0.85~0.9 M

Question: And the “Ionic strength at cloud point” value ([2]; salt NaCl)?
Answer: 0.85~0.9 M

Question: What about the pH ([3]; Concentration 0.5%) of the same substance?
Answer: 2.7

Question: And the pH ([3]; Concentration 1.0%)?
Answer: 2.5

Question: And the pH ([3]; Concentration 1.5%)?
Answer: 2.5

Question: What about the pH ([3]; Concentration 2.0%) of the same substance?
Answer: 2.5

Question: And the pH ([3]; Concentration 2.5%)?
Answer: 2.5

From patent publication US10654893B2, “Self-assembling peptide compositions” (3-D MATRIX, LTD., priority 2014, dated 2020)
